Results as given in patent publication US20240218057A1 (ROCKEFELLER UNIVERSITY, published 2024).

B1: C537 (antibody, V domains shown)
VH: QLQLQESGPGLVKPSETLSLTCTVSGGAISSRNYHWGWIRQPPGKGLEWIGSIYYSGSTYYSPSLKSRVTISVDTSKNQFSLRLSSVTAADTAVYYCARLETSGWYTEDVFDIWGQGTMVTVSS
VL: DIQMTQSPSSLSASVGDRVTITCRASQSISSYLNWYQQKPGKAPKLLIYAASSLQSGVPSRFSGSGSGTDFTLTISSLLPEDFATYYCQRSYSAMYTFGQGTKLEIK
B2: C533 (antibody, V domains shown)
VH: EVQLVESGGSLVKPGGSLRLSCVASGLTFNHAWMSWVRQAPGKGLEWVGRIKSKIDGGTTDYAAPVKGRFTISRDDSKSTQYLQMNSLKTEDTAVYYCTTDCFWRLGGTTCYEHDAFDVWGQGTMVTVSS
VL: DIQMTQSPSSLSASVGDRVTITCRASQAIATFLNWYQQKPGKAPKLLIYAASSLQSGVPSRFSGSGSGTDFTLTISNLQPEDFATYYCQQSYNSLHFGGGTKVEIK
B3: C547 (antibody, V domains shown)
VH: QVQLVESGGGVVQPGRSLRLSCAASGFTFSSYGMHWVRQAPGKGLEWVAVISYDGSNKYYADSVKGRFTISRDNSKNTLYLQMNSLRAEDTAVYYCAKDTPGGDDILTGWGLYGMDVWGQGTTVTVSS
VL: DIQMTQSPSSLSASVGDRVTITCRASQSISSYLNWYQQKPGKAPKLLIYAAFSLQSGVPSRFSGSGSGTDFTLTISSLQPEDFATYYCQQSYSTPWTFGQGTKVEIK
B4: C543 (antibody, V domains shown)
VH: QVQLVESGGGVVQPGRSLRLSCTASGFTFSTAGMHWVRQAPGKGLEWVAVISYDGSNKDYADSVKGRFTISRDNSKSTLYLQMNSLRPEDTAVYYCAKDTPGGDDIMTGWGLYGMDVWGQGTTVTVSS
VL: DIQMTQSPSSLSASVGDRVTITCRASQSISSYLNWYHQKPGKAPKLLIYAAISLQSGVPSRFSGSGFGTDFTLTISSLQPEDFAIYYCQQSYSTPWTFGQGTKVEIK
B5: C534 (antibody, V domains shown)
VH: QVQLVQSGAEVKKPGSSVRVSCKASGGTFSRNVISWVRQAPGQGLEWMGGIIPMFATANYAQKFQGRVTITADESSSTAYMELSSLRSEDTAVYYCAREDFILVSAPIRENSYYYYGMDVWGQGTTVTVSS
VL: EIVLTQSPGTLSLSPGERATLSCRASQSVSSNYLAWYQQKPGQAPRLLIYDASSRATGIPDRFSGSGSGTDFTLTISRLEPEDFAVYYCQQYGGSPRTFGQGTKVEIK
B6: C539 (antibody, V domains shown)
VH: EVQLVESGGGLVQPGRSLRLSCAASGFTFDDYALHWVRQAPGKGLEWVSGISWNGDSIGYADSVKGRFTISRDNAKNSLSLQMNSLTAEDTALYYCAKGVEYSSSSNCDYWGQGTLVTVSS
VL: DIQMTQSPSSVSASVGDRVTITCRASQDISSWLAWYQQKPGKAPKLLISLASGLQSGVPSRFSGSGSETDFTLTISSLQPEDFATYYCQQTNSFPLTFGGGTKVEI
B7: C538 (antibody, V domains shown)
VH: QLQLQESGPGLVKPSETLSLTCTVSGGSISSSSYYWAWIRQPPGKGLEWIGNIYYSGITYYSPSLKSRVTISVDTSKNQFSLKLRSVTAADTAVYYCARQHRYGSGSSELLWGQGTLVTVSS
VL: QSALTQPPSASGSPGQSVTISCTGTSSDVGSYNYVSWYQQHPGKAPKLMIYEVTKRPSGVPDRFSGSKSGNTASLTVSGLQADDEADYYCSSYAGSSNLIFGGGTKLTVL
B8: C542 (antibody, V domains shown)
VH: EVQLVESGGGLVQPGGSLRLSCAASGLTVTSNYMSWVRQAPGRGLEWVSLIYPGGTTYYADSVKGRFTVSRDNSKNTLYLQMDSLRAEDTGVYYCARETLGRGGDCWGQGTLVTVSS
VL: DIQMTQSPSSLSASVGDRVTITCQASQDISNFLNWYQQKPGKAPKLLIYDASNLETGVPSRFSGSRSGTDFTFTISSLQPDDIATYYCQQYDNLPRSFGQGTKLEIK
B9: C514 (antibody, V domains shown)
VH: EVQLVESGGGLVQPGGSLRLSCAASEFIVTRNYMSWVRQAPGKGLEWVSLIYPGGSTFYADSVKGRFTISRDNSKNTLFLHMNSLRAEDTAVYYCARDLAGRLDYWGQGTLVTVSS
VL: DIQMTQSPSSLSASVGDRVTITCQASQDINNFLNWYQQKPGKAPKLLIYDASNLETGVPSRFSGSGSGTDFTFTISSLQPEDIAIYYCQQYDSLSRLTFGGGTKVEIK
B10: C046 (antibody, V domains shown)
VH: EVQLVESGGGLAQPGRSLRLSCAASGFTFDDYAMHWVRQAPGKGLEWVSGINWNSGSLGYADSVKGRFTISRGIAKNSLYLQMNSLRPEDTAFYYCAKAGVRGIAAAGPDLNFDYWGQGTLVTVSS
VL: EIVLTQSPATLSLSPGERATLSCRASQSVSSYLAWYQQKPGQAPRLLIYDASNRATGIPARFIGSGSGTDFTLTISSLEPEDFAVYYCQQRITFGQGTRLEIK
B11: C841 (antibody, V domains shown)
VH: EVQLVESGGGLVQPGGSLRLSCAASGFTFSIFSMNWVRQAPGKGLEWISYISSSSGSRHYADSVKGRFTISRDNAKNSLYLQMNNLRDEDTAMYYCAREAHDGALTGYGDYLNWFDPWGQGVLVTVSS
VL: SYELTQPPSVSVAPGKTARIPCGGDSVGSKSVHWYQQKSGQAPVLVIHSDSDRPSGIPERFSGSNSGNTATLTITGVAAGDEADYYCHVWDTIGDRFYWVFGGGTKLTVL
B12: C840 (antibody, V domains shown)
VH: QVQLVESGGGVVQPGRSLRLSCEASGFTFTAYAMHWLRQAPGKGLEWVAVILNDGSNKLYADSVKGRFTVSRDNSKNMLYLQVNSLRVDDTAVYYCARDGSVDTLMVTWFDYWGQGTLVTVSS
VL: DIQMTQSPSSLSASVGDRVTITCRASQSVNNYLNWYQQKPGQAPKLLIYAASSLQSGVPLRFSGSGSGTDFALTITSLHTEDFATYYCQQSYNTPPWTFGPGTKVEIK
B13: C936 (antibody, V domains shown)
VH: EVQLVESGGGLIQPGGSLRLSCAASGFTVSSNYMSWVRQAPGKGLEWVSVIYSGGSTFYADSVKGRFTISRDNSKNTLYLQMNSLRAEDTAVYYCARDLGTGLFDYWGQGTLVTVSS
VL: DIQLTQSPSFLSASVGDRVTITCRASQGISSYLAWYQQKPGKAPKLLIYAASTLQSGVPSRFSGSGSGTEFTLTISSLQPEDFATYYCQQLDSYPPGTFGPGTKVDIK
B14: C929 (antibody, V domains shown)
VH: EVQLVESGGGLIQPGGSLRLSCAASGFTVSSNYMTWVRQAPGKGLEWVSVIYSGGTTYYADSVKGRFTISRDNSKNTLYLQMNSLRAEDTAVYYCARDLVVWGMDVWGQGTTVTVSS
VL: DIQLTQSPSFLSASVGDRVTITCRASQGISSYLAWYQQKPGKAPKLLIYAASTLQSGVPSRFSGSGSGTEFTLTISSLQPEDFATYYCQLLNSYPYTFGQGTKLEIK
B15: C937 (antibody, V domains shown)
VH: EVQLVESGGGLIQPGGSLRLSCAASELTVSSNYMSWVRQAPGKGLEWVSVIYPGGSTFYADSVKGRFTISRDNSKNTLYLQMNSLRAEDTAVYYCARDLGTGLFDYWGQGTLVTVSS
VL: DIQLTQSPSFLSASVGDRVTITCRASQGISSYLAWYQQKPGKAPKLLIYAASTLQSGVPSRFSGSGSGTEFTLTISSLQPEDFATYFCQLLNSNPPGTFGPGTKVDIK
B16: C871 (antibody, V domains shown)
VH: EVQLVESGGGLIQTGGSLKLSCAASGFIVTNNYMSWVRQAPGKGLEWVSVIYSGGTTYYADSVKGRFTISRDISKNTLYLQMNSLKAEDTAVYYCAREGDVEGISDSWSGYSRDRYYFDHWGQGTLVTVSS
VL: QSALTQPASVSGSPGQSITISCTGTSSDVGGYNYVSWYQQHPGKAPKLMIYDVSNRPPTISNRFSGSKSGNTASLIISGLQPEDEADYYCSSFTSNNTRVFGTGTKVTVL
B17: C1003 (antibody, V domains shown)
VH: QVQLVESGGGVVQPGRSLRLSCAASGFAFSSYGMNWVRQAPGKGLEWVTTVSSDGNVNYYIDSVKGRFTISRDNSKNTLYLQMNSLRGDDTAVYYCAKGPRFGWSYRGGSGFDIWGQGTMVTVSS
VL: DIQMTQSPSSLSASVGDRVTITCQASQDISNYLNWYQQKPGKAPKLLIYDASNLETGVPSRFSGSGSGTDFTFTITSLQPEDIATYYCQQYDNLPITFGQGTRLEIK
B18: C916 (antibody, V domains shown)
VH: EVQLVESGGGLVQPGGSLRLSCAASGFTFSNYDMHWVRQATGRGLEWVSTIGTAGDTYYPGSVKGRFTISRENAKNSLYLQMNSLRAGDTALYYCARVRYDSSGYFWSLDYWGQGTLVTVSS
VL: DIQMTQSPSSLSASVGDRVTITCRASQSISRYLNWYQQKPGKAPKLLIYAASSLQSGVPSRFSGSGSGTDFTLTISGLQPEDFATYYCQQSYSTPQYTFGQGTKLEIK
B19: C917 (antibody, V domains shown)
VH: EVQLVESGGGLVQPGGSLRLSCAASGFTFSNYDMHWVRQATGKGLDWVSTIGTAGDTYYPGSVKGRFTISRENAKNSLYLQMNSLRAGDTAVYYCARVRFDTSGYFWSLDYWGQGTLVTVSS
VL: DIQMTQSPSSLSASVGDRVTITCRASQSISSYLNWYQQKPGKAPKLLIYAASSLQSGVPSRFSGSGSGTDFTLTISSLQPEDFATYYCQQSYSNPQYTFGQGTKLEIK
B20: C1002 (antibody, V domains shown)
VH: EVQLVESGGGLVQPGGSLRLSCAASEFIVSSNYMTWVRQAPGKGLEWVSIMYPGGSTFYADSVKGRFTISRDNSKNTLYLQINRLRAEDTAVYYCARDIAGRLDYWGQGTLVTVSS
VL: DIQMTQSPSSLSASVGDRVTITCQASQDINNYLNWYQQKPGKAPKLLIYDASNLETGVPSRFSGSGSGTDFSFTISSLQPEDIATYYCQQYDNLSRLTFGGGTKVEIK
B21: C1010 (antibody, V domains shown)
VH: QVQLVESGGGVVQPGRSLRLSCAASGFTFSSYAMHWVRQAPGKGLEWVAVISYDGSNKYYADSVKGRFTISRDNSKNTLYLQMNSLRAEDTAVYYCAKKGQPYCGGDCYFYYFDYWGQGTLVTVSS
VL: DIQMTQSPSSLSASLGDRVTITCQASQDISNYLNWYQQKPGKAPKLLIYDASNLETGVPSRFSGSGSGTDFTFTISSLQPEDIATYYCQQYDNLPPITFGQGTRLEIK
B22: C1011 (antibody, V domains shown)
VH: QVQLVESGGGVVQPGRSLRLSCAVSGFTFSHYAMHWVRQAPGKGLEWVAVISYDGADKYYADSVRGRFTIARDNSKNTLFLQMSSLRPEDTAVYYCAKKGQPYCGGDCHFYYLDYWGQGTLVTVSS
VL: DIQMTQSPSSLSASVGDRVTITCQASQDISNHLNWYQQKPGKAPKLLIYDASNLETGVPSRFSGSGSGTDFTFTISSLQAEDIATYYCQQYDNLPPITFGQGTRLEIK
B23: C934 (antibody, V domains shown)
VH: QVQLVQSGAEVKKPGASVKVSCKASGYTFTDYYIHWVRQAPGQGLEWMGWINPNSGGTNYAQKFQGRVTMTRDTSISTAYMDLSRLRSDDTAVYYCARDVIITMGRGVVFRMDVWGQGTTVTVSS
VL: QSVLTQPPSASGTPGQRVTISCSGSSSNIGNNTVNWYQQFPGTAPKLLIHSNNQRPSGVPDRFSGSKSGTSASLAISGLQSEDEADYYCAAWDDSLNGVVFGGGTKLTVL

Molecular target: SARS-COV-2 RBD (SARS-COV-2, UniProt P0DTC2 319-539)
Test: ELISA, RBD coated

| Binder | EC50 [ng/mL] |
| --- | --- |
| B1 | 41.9 |
| B2 | 1.61 |
| B3 | 1.78 |
| B4 | 1.28 |
| B5 | 4.85 |
| B6 | 1.3 |
| B7 | 3.94 |
| B8 | 1.07 |
| B9 | 0.82 |
| B10 | 4.02 |

Molecular target: T1, SARS-CoV-2 receptor-binding domain (WT RBD; S protein residues 319-539) (SARS-CoV-2, UniProt P0DTC2 319-539)
T1 construct: also called SARS-COV-2 RBD
Test: BLI (Octet Red), IgG on protein A biosensor, WT RBD in solution, 1:1 fit

| Binder | Kd [nM] |
| --- | --- |
| B11 | 1.64 |
| B12 | 5.56 |
| B13 | 667 |
| B14 | 0.127 |
| B15 | 3.03 |
| B16 | 3.7 |
| B17 | 90.9 |
| B18 | 3.45 |
| B19 | 0.101 |
| B20 | 0.00196 |
| B21 | 62.5 |
| B22 | 0.0833 |
| B23 | 100 |
